Measurements from patent US20240368279A1 (SHANGHAI SINOBAY BIOTECHNOLOGY, published 2024).

B1: Hu004-65 antibody (full-length human IgG1, kappa) (antibody, V domains shown)
VH: EVQLVESGGGLVQPGGSLRLSCAASGFTFSGYGMSWVRQAPGKGLEWVATITSGGTYTYYPDSVKGRFTISRDNAKNSLYLQMNSLRAEDTAVYYCARSLAGNAMDYWGQGTLVTVSS
VL: DIQMTQSPSSLSASVGDRVTITCRASQSITKSLNWYQQKPGKAPRLLIRVASTLQSGVPSRFSGSGSGTDFTLTISSLQPEDFATYYCQHSYSFGQGTKLEIT
notes: also called candidate antibody Hu004-65; monoclonal antibody Hu004-65
B2: Hu004-101 antibody (full-length human IgG1, kappa) (antibody, V domains shown)
VH: B1 VH
VL: DIQMTQSPSTLSASVGDRVTITCRASQSISNWLAWYQQKPGEAPKLLIYKASNLESGVPSRFSGSGSGTEFTLTISSLQPDDFATYYCQQFGTFGQGTKVEIK

Biological target: human CD47 protein (antigen of the SPR affinity determination) (human, UniProt Q08722 19-139, limits assumed)
Assay: affinity for a human CD47 protein (method not given; SPR in Example 3)

| Binder | Kd [nM] |
| --- | --- |
| B1 | 146 |
| B2 | 320 |
